Patent publication US20260152767A1 (TRUSTEES OF COLUMBIA UNIVERSITY IN THE CITY OF NEW YORK, published 2026)

B1: Allomuricauda taeanensis (Ata) sigma factor E RpoE with N-terminal 3xFLAG tag (other)
chain: MLYSDFELLKIGDTSALDHIHAKYFRSILWIGRQWLNDDFLIESLVQDTFLKLWVNRDKLESPEHIFYFLRFVMKRECISYYRKPKYKFHKKVNSLEDYDNYQDYMVGYDPVNDSENLDEQESTQKSFDHIKSILPLLNADKRHLIELCLKYGFQYKAISKVMGKGIHETSREIKEAIEDIKTIVHKGNELGSNDTMTNEIKFSGELSEEQAKVLKMRCDLKYSFSEIAKELELSEKEVHQEFMKAYKLMKANHQLQLQSA
notes: Expressed in E. coli together with dCas12f, HTH and gRNA; also called FLAG-RpoE; Ata RpoE; not shown: N-terminal 3xFLAG tag
B2: Allomuricauda taeanensis (Ata) rpoE-associated nuclease-dead Cas12f (other)
chain: MGKSTLKHTRKIQILIDLPTKDEKKEVMDMMYQWRDRCFRAANIIVTHLYVQEMIKDFFYLSEGIKYKLADEKKDEKGILQRSRMNTTYRVVSDRFKGEMPTNILSTLNHGLISSFNKNRVQYWKGERSLPNFKKDMAFPFGLQGISRLVYDEEKKAFCFRLYRVPFKTYLGKDFTDKRMLLERLVKGDVKLCASNIQLNGGKIFWLAVFEIEKEKHSLKPEVIAEASLSLEYPIVVKTGKNRLTIGTKEEFLYRRLAIQAARRRTQVGATYSRSGKGKKRKLKAVDKYHKTESNYVAHRIHVYSRKLIDFCIKHQAGTLILMNQEDKVGIAKEEEFVLRNWSYYELMTKIKYKAEKAGIELIIG
notes: Untagged dCas12f, co-expressed in E. coli with its gRNA from the Ata plasmid in which the FLAG tag sits on RpoE or on HTH; also called Ata dCas12f; AtadCas12f

Columns and labels:
[1] = target: B2; experiment: ChIP-seq (anti-FLAG) of N-terminally 3xFLAG-tagged Ata RpoE in E. coli co-expressing Ata dCas12f and gRNAs retargeted to four genomic sites
Method: After conjugating, the antibody-magnetic beads were added to the sonication supernatant and incubated at 4° C. for 12-16 h. Then, the magnetic beads were washed and immunoprecipitated protein bound to crosslinked DNA was eluted. Reverse-crosslinking was performed at 65° C. overnight. Samples were treated with RNase A (Thermo Fisher Scientific) and proteinase K (Thermo Fisher Scientific) and purified using QIAquick spin columns (QIAGEN). ChIP-sequencing libraries were generated using the NEBNext Ultra II DNA Library Prep Kit for Illumina (NEB). Size selection (˜450 bp fragment size) was performed using AMPure XP Beads (Beckman Coulter) and samples were sequenced using the Illumina NextSeq 500 platform in paired-end mode with 75 cycles per end. Sequencing reads were mapped to the E. coli K-12 genome (GenBank NC_000913.3) using bowtie2 and normalized using deepTools bamCoverage and visualized in IGV using counts per million (CPM). […]
Re-programmability of gRNAs for RNA-guided DNA-targeting of dCas12f and RpoE To test whether the gRNA and TAM were correctly determined by RIP-seq and ChIP-seq, new guide sequences were cloned for one representative system (here, Ata), targeting 4 different DNA sites tiled across the E. coli K-12 genome. […]

[2] = target: B1; experiment: summary of the ChIP-seq and ChIP-qPCR data on the Ata system in E. coli

| binding result [1] | binding result [2] | Binder |
| --- | --- | --- |
| binds |  | B1 |
|  | binds | B2 |
